Reference: patent US20210054353, “NOVEL RNA-PROGRAMMABLE ENDONUCLEASE SYSTEMS AND USES THEREOF” (CRISPR THERAPEUTICS AG, published 2021)

Columns and labels:
F8 sRGN = target: T1, F8 sRGN (synthetic (Staphylococcus Cas9 chimera)); test: FP; cleavage; 5 mM MgCl2, 37 C
T1 chain: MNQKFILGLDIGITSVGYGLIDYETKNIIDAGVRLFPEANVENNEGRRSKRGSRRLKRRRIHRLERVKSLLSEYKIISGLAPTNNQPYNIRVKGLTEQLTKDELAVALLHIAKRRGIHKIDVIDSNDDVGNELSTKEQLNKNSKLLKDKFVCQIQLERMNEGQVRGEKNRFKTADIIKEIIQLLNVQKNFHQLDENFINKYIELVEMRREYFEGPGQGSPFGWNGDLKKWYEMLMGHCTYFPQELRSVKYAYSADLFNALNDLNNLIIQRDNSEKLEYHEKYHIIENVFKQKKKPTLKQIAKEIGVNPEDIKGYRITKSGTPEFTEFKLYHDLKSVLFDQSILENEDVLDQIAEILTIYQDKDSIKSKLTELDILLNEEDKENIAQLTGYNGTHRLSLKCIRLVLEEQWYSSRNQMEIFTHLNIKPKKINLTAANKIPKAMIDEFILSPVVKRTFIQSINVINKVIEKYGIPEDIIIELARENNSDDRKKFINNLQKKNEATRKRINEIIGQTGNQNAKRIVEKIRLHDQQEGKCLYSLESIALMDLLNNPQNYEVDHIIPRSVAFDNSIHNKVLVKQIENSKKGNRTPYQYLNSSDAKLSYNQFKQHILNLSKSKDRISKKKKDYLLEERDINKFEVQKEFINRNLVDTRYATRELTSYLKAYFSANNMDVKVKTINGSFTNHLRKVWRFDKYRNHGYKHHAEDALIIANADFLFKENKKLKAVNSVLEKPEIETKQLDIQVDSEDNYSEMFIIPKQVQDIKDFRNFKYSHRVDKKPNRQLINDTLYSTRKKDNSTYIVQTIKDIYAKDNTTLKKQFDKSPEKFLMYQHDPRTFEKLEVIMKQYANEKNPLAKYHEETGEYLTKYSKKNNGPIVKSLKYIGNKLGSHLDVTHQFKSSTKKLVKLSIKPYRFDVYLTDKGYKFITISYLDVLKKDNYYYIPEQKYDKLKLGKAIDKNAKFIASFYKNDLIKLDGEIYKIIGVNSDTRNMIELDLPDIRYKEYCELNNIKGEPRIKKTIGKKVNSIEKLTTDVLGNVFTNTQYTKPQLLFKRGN
Protocol: (§1) Oligonucleotide duplexes were prepared in 10 mM Tris (pH 7.8) 50 mM NaCl as 10 μM solutions (from 100 μM stocks) and annealed at 95° C. for 5 minutes then slowly cooled down in thermo cycler (6° C. per minute). The stocks were subsequently diluted in 10 mM Tris (pH 7.8), 50 mM NaCl, and 0.05% Pluronic. 20 μl of each oligonucleotide (20 nM) was immobilized on streptavidin coated plates, washed twice after 10 minutes and then incubated with a 20 μL sample for a kinetics of 60 minutes (excitation wavelength: 635 nm; emission wavelength: 670 nm). Prior to the cleavage the reaction RNP was formed. RNP was assembled by mixing 12.03 μl of the respective sRGN protein (1.21 μg/μl) in 3200 μl 1×PBS+5 mM MgCl₂ with and without sgRNA (SEQ ID NO: 128; 60 nM final concentration), RNPs were incubated 5 min at 37° C. prior to the reaction. 20 μl RNP was added to each well and the polarization was measured for 60 minutes at 37° C.
(§2) The cleavage kinetics were analyzed by calculating the initial slope of the oligonucleotide cleavage reaction. The slopes were calculated for each of the 61 substrates and normalized to the value of the on-target substrate (defined as 1). The normalized cleavage values for all 60 off-target substrates where then grouped according to their position. […]

Gib11 sRGN = target: T2, Gib11 sRGN (synthetic (Staphylococcus Cas9 chimera)); test: FP; cleavage; 5 mM MgCl2, 37 C; PAM GGGG on substrate; mismatch values only in figure
T2 chain: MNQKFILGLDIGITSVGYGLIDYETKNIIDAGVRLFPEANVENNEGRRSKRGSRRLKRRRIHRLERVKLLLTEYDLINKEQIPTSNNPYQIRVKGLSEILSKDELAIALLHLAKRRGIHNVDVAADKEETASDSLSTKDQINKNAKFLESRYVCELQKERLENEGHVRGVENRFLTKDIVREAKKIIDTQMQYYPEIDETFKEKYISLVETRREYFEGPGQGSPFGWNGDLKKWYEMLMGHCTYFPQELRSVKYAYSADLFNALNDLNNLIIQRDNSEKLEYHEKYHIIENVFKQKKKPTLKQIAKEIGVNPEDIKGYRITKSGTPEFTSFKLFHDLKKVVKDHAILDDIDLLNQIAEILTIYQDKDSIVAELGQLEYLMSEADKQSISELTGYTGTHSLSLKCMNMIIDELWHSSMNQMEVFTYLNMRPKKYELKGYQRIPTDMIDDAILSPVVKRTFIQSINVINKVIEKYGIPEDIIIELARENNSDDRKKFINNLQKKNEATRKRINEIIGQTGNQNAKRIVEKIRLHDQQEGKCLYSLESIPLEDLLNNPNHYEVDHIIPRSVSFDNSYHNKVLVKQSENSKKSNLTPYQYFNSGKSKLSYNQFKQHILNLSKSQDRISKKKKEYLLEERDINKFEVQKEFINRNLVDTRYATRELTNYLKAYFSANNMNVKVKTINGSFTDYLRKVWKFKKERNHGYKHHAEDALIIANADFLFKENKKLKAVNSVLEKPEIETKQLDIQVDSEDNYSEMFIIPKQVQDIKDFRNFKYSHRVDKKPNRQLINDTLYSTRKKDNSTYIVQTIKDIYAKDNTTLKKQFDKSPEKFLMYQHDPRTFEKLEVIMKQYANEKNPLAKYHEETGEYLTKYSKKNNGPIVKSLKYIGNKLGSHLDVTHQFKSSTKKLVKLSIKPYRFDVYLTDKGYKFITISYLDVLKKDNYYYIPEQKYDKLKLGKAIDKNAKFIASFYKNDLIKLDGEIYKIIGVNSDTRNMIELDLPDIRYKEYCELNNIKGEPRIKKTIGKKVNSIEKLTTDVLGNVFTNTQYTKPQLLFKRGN
Protocol: as §1, §2

Gib11Spa-1 sRGN = target: T3, Gib11Spa-1 sRGN (synthetic (Staphylococcus Cas9 chimera)); test: FP; cleavage; 5 mM MgCl2, 37 C; PAM GGGG on substrate
T3 chain: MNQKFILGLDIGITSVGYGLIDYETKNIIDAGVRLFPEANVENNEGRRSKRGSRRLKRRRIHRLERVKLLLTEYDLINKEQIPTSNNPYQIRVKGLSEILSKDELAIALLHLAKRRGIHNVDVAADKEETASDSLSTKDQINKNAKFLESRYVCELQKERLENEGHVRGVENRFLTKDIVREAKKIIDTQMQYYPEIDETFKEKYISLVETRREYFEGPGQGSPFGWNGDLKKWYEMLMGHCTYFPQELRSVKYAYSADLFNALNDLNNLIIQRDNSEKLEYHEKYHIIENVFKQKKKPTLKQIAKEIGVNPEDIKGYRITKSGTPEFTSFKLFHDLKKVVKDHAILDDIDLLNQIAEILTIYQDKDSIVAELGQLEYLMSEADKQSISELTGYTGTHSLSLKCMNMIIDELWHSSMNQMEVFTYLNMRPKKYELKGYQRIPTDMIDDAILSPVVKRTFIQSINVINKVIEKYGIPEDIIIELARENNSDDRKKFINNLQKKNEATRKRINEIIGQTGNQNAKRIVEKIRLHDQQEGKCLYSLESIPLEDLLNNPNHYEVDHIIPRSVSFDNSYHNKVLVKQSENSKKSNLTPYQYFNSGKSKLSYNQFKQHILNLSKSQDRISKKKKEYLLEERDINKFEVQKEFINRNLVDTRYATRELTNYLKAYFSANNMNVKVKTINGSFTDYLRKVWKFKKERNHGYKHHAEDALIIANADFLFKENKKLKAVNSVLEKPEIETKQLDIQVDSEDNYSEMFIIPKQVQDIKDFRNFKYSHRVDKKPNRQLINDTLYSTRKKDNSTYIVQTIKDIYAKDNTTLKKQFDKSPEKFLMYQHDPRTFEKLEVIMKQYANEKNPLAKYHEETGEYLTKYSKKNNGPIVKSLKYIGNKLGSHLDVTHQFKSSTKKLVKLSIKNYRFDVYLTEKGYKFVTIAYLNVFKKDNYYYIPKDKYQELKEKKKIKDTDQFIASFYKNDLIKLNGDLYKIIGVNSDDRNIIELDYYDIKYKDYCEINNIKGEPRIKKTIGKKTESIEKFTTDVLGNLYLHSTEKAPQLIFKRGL
Protocol: as §1, §2

Gib11Spa-3 sRGN = target: T4, Gib11Spa-3 sRGN (synthetic (Staphylococcus Cas9 chimera)); test: as above
T4 chain: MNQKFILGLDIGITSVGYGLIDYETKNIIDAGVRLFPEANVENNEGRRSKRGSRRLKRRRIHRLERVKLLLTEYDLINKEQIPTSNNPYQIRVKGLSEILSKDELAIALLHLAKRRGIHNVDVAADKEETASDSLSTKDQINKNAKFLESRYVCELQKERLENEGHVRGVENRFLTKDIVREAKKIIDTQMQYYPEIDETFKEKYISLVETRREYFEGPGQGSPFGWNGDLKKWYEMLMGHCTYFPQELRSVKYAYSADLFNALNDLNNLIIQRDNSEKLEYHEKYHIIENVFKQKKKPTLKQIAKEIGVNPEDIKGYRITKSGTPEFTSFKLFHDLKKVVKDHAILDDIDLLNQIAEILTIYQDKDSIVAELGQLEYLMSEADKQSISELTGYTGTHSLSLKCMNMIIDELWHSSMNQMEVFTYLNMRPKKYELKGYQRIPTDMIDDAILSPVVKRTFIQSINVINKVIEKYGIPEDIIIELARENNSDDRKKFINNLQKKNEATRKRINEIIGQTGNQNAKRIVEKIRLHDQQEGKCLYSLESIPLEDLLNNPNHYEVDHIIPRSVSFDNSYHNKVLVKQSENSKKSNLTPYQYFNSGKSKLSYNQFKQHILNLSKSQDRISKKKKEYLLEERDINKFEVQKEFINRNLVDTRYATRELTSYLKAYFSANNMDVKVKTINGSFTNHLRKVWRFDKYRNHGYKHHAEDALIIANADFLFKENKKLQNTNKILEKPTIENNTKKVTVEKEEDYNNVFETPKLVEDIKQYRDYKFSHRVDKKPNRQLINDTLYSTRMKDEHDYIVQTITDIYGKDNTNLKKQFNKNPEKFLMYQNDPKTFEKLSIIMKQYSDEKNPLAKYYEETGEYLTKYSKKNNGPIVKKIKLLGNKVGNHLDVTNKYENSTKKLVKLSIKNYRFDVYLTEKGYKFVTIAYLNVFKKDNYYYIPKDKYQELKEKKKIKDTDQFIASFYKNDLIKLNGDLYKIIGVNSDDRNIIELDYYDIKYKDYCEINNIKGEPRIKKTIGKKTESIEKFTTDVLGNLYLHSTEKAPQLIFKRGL
Protocol: as §1, §2

E2 sRGN = target: T5, E2 sRGN (synthetic (Staphylococcus Cas9 chimera)); test: FP; cleavage; specificity profile comparable to SluCas9
T5 chain: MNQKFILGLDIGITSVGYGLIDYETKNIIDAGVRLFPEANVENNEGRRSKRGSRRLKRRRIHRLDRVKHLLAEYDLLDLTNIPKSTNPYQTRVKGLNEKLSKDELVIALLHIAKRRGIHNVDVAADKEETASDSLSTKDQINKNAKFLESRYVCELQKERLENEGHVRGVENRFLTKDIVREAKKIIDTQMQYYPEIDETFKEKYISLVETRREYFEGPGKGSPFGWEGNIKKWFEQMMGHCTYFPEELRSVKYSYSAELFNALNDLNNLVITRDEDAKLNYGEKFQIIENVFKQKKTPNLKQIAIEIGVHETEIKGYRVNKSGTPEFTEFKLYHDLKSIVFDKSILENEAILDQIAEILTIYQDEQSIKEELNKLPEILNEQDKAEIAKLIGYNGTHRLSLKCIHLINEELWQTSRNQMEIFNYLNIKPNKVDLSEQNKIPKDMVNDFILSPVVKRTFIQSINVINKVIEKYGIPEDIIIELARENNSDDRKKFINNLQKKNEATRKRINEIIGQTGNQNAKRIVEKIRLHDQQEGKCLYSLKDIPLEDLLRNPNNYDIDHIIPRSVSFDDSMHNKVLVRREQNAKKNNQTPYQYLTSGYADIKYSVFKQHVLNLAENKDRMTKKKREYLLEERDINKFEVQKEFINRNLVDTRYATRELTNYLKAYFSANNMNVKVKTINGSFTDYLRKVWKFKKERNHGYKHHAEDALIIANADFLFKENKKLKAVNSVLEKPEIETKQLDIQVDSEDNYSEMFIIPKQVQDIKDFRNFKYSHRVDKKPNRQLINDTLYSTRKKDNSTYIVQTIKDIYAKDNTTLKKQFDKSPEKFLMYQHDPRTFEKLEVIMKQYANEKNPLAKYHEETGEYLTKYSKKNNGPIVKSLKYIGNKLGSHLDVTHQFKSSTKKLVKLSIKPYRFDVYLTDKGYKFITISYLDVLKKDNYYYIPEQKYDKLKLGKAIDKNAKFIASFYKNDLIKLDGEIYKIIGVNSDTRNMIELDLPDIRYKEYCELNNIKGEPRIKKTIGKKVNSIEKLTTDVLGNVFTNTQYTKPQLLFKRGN
Protocol: as §1, §2

Measured: binding result

B1: sgRNA_Ex6 ; R01-1 on-target duplex (ssRNA ; dsDNA)
RNA: GGUGAACGUGGAUGAAGUUGGUUUUAGUACUCUGGAAACAGAAUCUACUGAAACAAGACAAUAUGUCGUGUUUAUCCCAUCAAUUUAUUGGUGGGAUUUUUUUCUAGCAUAACCCCUUGGGGCCUCUAAACGGGUCUUGAGGGGUUUUUU
DNA 1: GGTGAACGTGGATGAAGTTGTGGGGTAC
DNA 2: GCGGTACCCCACAACTTCATCCACGTTCACCGG
binds: F8 sRGN | Gib11 sRGN | Gib11Spa-1 sRGN | Gib11Spa-3 sRGN | E2 sRGN
